Laboratory results from patent US20150266977A1 (AbbVie / Abbott, published 2015).
Numbering of substitutions follows the chain as printed. Like-named read-outs stand apart in the source and are kept apart here. One block for each binder: values may come before it.

Key:
[1] = target: T1, recombinant human sclerostin (human, UniProt Q9BQB4 24-213); test: direct bind ELISA
T1 construct: biotinylated in the ELISAs; also called hu sclerostin; hu scl
T1 sequence: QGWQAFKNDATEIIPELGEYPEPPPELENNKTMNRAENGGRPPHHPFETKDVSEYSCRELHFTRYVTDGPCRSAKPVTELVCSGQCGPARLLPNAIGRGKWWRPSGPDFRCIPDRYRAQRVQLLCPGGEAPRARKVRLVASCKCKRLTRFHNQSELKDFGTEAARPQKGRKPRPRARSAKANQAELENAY

[2] = target: T2, recombinant mouse sclerostin (mouse, UniProt Q99P68 24-211); test: SPR
T2 construct: also called ms sclerostin; murine sclerostin
T2 sequence (looked up): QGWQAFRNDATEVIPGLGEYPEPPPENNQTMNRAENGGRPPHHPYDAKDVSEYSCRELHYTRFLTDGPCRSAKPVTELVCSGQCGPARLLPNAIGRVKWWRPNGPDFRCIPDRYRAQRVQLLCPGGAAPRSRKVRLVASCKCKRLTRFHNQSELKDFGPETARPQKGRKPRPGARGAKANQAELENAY

[3] = target: T3, recombinant rat sclerostin (rat, UniProt Q99P67 24-213, limits assumed); test: SPR
T3 sequence (looked up): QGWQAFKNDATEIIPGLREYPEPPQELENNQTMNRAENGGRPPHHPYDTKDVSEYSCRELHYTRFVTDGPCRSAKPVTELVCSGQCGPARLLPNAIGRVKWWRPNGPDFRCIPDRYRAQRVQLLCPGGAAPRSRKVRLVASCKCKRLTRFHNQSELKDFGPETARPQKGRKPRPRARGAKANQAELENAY

[4] = target: T1, recombinant human sclerostin; test: SPR
Method: (§1) Approximately 10,000 RU (or 3000 RU when CM3 chip was used) of goat anti-mouse or anti-human IgG (Fcγ) fragment specific polyclonal antibody (Pierce Biotechnology Inc, Rockford, Ill.) diluted in 10 mM sodium acetate (pH 4.5) was directly immobilized across a CM5 (or CM3) research grade biosensor chip using a standard amine coupling kit according to manufacturer's instructions and procedures at 15 μg/ml. Unreacted moieties on the biosensor surface were blocked with ethanolamine. Modified carboxymethyl dextran surface in flowcells 2, 3 and 4 were used as a reaction surface. Modified carboxymethyl dextran in flow cell 1 was used as the reference surface. Biaevaluation T100 software version 2.0.2, GE Healthcare Life Sciences was used to simultaneously fit association and dissociation phases of all injections (using 1:1 fit analysis with local Rmax). Purified antibodies were diluted in running buffer for capture across goat anti-mouse or anti-human IgG specific reaction surfaces. Antibodies to be captured as a ligand (1 μg/ml) were injected over reaction matrices at a flow rate of 10 μl/minute. The association and dissociation rate constants, kon (unit M-1 s-1) and koff (unit s-1) were determined under a continuous flow rate of 50 μl/minute. […] At the end of each cycle the surfaces were regenerated with 10 s injection of 50 mM NaOH or/and by 10 s injection of 10 mM Glycine pH1.5 at a flow rate of 100 μl/min. Instrument appropriate Biaevaluation software, GE Healthcare Life Sciences was used to simultaneously fit association and dissociation constants as well as KD (using 1:1 global fit analysis with local Rₘₐₓ). Binding was recorded as a function of time and kinetic rate constants are calculated. In this assay, on-rates as fast as 10⁷ M⁻¹ s⁻¹ and off-rates as slow as 10⁻⁶ s⁻¹ can be measured.

[5] = target: T4, recombinant cynomolgus monkey sclerostin (cynomolgus monkey); test: SPR
T4 construct: also called cyno sclerostin; Cyno sclerostin
Method: as §1

[6] = target: T1, recombinant human sclerostin; test: capture ELISA, biotin-sclerostin
[7] = target: T1, recombinant human sclerostin; test: SPR; remark: listed apart in the source
Method: as §1, with “The binding of antibodies or anti-sclerostin-TNF DVD to purified recombinant human, cynomolgus monkey (cyno), rat and mouse sclerostin and TNFα was determined by surface plasmon resonance-based measurements with a Biacore T100 or T200 instruments (GE Healthcare Life Sciences, Piscataway, N.J., USA) using running HBS-EP+ (10 mM HEPES [pH 7.4], 150 mM NaCl, 3 mM EDTA, and 0.005% surfactant P20) containing additional 150 mM NaCl, and/or 10 mg/ml carboxymethyl dextran, 0.1 mg/ml BSA at 25° C. All chemicals were obtained from GE Healthcare Life Sciences, Piscataway, N.J., USA or otherwise from a different source as described in the text. Approximately” for “Approximately”, “μl/min.” for “μl/min. Instrument appropriate Biaevaluation software, GE Healthcare Life Sciences was used to simultaneously fit association and dissociation constants as well as KD (using 1:1 global fit analysis with local Rₘₐₓ). Binding was recorded as a function of time and kinetic rate constants are calculated. In this assay, on-rates as fast as 10⁷ M⁻¹ s⁻¹ and off-rates as slow as 10⁻⁶ s⁻¹ can be measured.”

[8] = target: T4, recombinant cynomolgus monkey sclerostin; test: SPR; remark: listed apart in the source
Method: as §1, with “The binding of antibodies or anti-sclerostin-TNF DVD to purified recombinant human, cynomolgus monkey (cyno), rat and mouse sclerostin and TNFα was determined by surface plasmon resonance-based measurements with a Biacore T100 or T200 instruments (GE Healthcare Life Sciences, Piscataway, N.J., USA) using running HBS-EP+ (10 mM HEPES [pH 7.4], 150 mM NaCl, 3 mM EDTA, and 0.005% surfactant P20) containing additional 150 mM NaCl, and/or 10 mg/ml carboxymethyl dextran, 0.1 mg/ml BSA at 25° C. All chemicals were obtained from GE Healthcare Life Sciences, Piscataway, N.J., USA or otherwise from a different source as described in the text. Approximately” for “Approximately”, “μl/min.” for “μl/min. Instrument appropriate Biaevaluation software, GE Healthcare Life Sciences was used to simultaneously fit association and dissociation constants as well as KD (using 1:1 global fit analysis with local Rₘₐₓ). Binding was recorded as a function of time and kinetic rate constants are calculated. In this assay, on-rates as fast as 10⁷ M⁻¹ s⁻¹ and off-rates as slow as 10⁻⁶ s⁻¹ can be measured.”

recombinant human TNF-α [9] = target: T5, recombinant human TNF-α (human, UniProt P01375 77-233); test: SPR
T5 construct: also called huTNF; Human TNFa
Method: as §1, with “The binding of antibodies or anti-sclerostin-TNF DVD to purified recombinant human, cynomolgus monkey (cyno), rat and mouse sclerostin and TNFα was determined by surface plasmon resonance-based measurements with a Biacore T100 or T200 instruments (GE Healthcare Life Sciences, Piscataway, N.J., USA) using running HBS-EP+ (10 mM HEPES [pH 7.4], 150 mM NaCl, 3 mM EDTA, and 0.005% surfactant P20) containing additional 150 mM NaCl, and/or 10 mg/ml carboxymethyl dextran, 0.1 mg/ml BSA at 25° C. All chemicals were obtained from GE Healthcare Life Sciences, Piscataway, N.J., USA or otherwise from a different source as described in the text. Approximately” for “Approximately”, “μl/min.” for “μl/min. Instrument appropriate Biaevaluation software, GE Healthcare Life Sciences was used to simultaneously fit association and dissociation constants as well as KD (using 1:1 global fit analysis with local Rₘₐₓ). Binding was recorded as a function of time and kinetic rate constants are calculated. In this assay, on-rates as fast as 10⁷ M⁻¹ s⁻¹ and off-rates as slow as 10⁻⁶ s⁻¹ can be measured.”

recombinant human TNF-α [10] = target: T5, recombinant human TNF-α; test: cell-based or functional assay
Rhesus/cynoTNFa = Rhesus/cynoTNFa (Rhesus/cyno); test: cell-based or functional assay
Chain of Rhesus/cynoTNFa (Rhesus/cyno) (P48094 whole entry): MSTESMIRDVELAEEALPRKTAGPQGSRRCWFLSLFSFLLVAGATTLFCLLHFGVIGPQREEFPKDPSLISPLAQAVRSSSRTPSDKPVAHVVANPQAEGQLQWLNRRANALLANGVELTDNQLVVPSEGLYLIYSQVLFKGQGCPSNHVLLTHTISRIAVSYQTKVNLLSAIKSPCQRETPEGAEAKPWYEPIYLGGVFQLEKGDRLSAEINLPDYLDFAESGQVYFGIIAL

T5 sequence (P01375 77-233 limits assumed): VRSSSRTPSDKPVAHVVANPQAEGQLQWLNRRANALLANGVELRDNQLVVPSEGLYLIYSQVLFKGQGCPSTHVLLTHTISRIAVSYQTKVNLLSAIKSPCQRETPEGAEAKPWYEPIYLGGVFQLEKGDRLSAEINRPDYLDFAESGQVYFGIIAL

B3: MSL9-8 (antibody, V domains shown)
VH: EVQLVESGGGLVQPGGSLRLSCAASGFRFTDYWMTWVRQAPGKGPEWVANINEDGSKKHYADSVKDRFIISRDNAKKSLSLQMKRMRAEDTAVYYCAADLNPHWLVGWGQGTLVTVSS
VL: QPVLTQPPSVSVAPGKTARITCGGNNIGSRRVHWYQQKPGQAPVLVVYDDNDRPSGIPERFSGSKSGNTATLTISRVEAGDEADYYCQVWHSGRVFGTGTKVTVLG
notes: fully human mAb
EC50 [6]: 12.3 nM

B5: MSL10 (antibody, V domains shown)
VH: EVQLVESGGGLVQPGGSLRLSCTASGFTFDDYALHWVRQAPGKGLEWVSGISWHGDFIDYADSVKGRFTISRDNSKNTLYLQMNGLRVEDMAIYYCAGNNRGYGGLDVWGQGTTVTVSS
VL: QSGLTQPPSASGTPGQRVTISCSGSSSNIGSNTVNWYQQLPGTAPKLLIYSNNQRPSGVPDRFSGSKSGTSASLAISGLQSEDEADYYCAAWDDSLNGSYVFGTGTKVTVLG
notes: fully human mAb
EC50 [6]: 0.427 nM

B6: MAK199-1-GS-AE10-6 AM7 QL (bispecific antibody, human IgG1, lambda, L234A L235A)
heavy: EVQLVQSGAEVKKPGASVKVSCKASGYTFANYGIIWVRQAPGQGLEWMGWINTYTGKPTYAQKFQGRVTMTTDTSTSTAYMELSSLRSEDTAVYYCARKLFTTMDVTDNAMDYWGQGTTVTVSSGGGGSGGGGSEVQLVQSGAEVKKPGASVKVSCKVSGYTLTELSMHWVRQAPGKGLEWMGGFDPEDGETIYAQKFQGRVTMTEDTSTDTAYMELSSLRSEDTAVYYCATDTVGYWEKFFQHWGQGTLVTVSSASTKGPSVFPLAPSSKSTSGGTAALGCLVKDYFPEPVTVSWNSGALTSGVHTFPAVLQSSGLYSLSSVVTVPSSSLGTQTYICNVNHKPSNTKVDKKVEPKSCDKTHTCPPCPAPEAAGGPSVFLFPPKPKDQLMISRTPEVTCVVVDVSHEDPEVKFNWYVDGVEVHNAKTKPREEQYNSTYRVVSVLTVLHQDWLNGKEYKCKVSNKALPAPIEKTISKAKGQPREPQVYTLPPSREEMTKNQVSLTCLVKGFYPSDIAVEWESNGQPENNYKTTPPVLDSDGSFFLYSKLTVDKSRWQQGNVFSCSVLHEALHNHYTQKSLSLSPGK
light: DIQMTQSPSSLSASVGDRVTITCRASQDISQYLNWYQQKPGKAPKLLIYYTSRLQSGVPSRFSGSGSGTDFTLTISSLQPEDFATYFCQQGNTWPPTFGQGTKLEIKRGGSGGGGSGQAVVTQEPSLTVSPGGTVTLTCGSSTGTVTIDHYPYWFQQKPGQAPRTLISDTDDKHSWTPARFSGSLLGGKAALTLSGAQPEDEAEYYCLLDYGGRFVFGGGTKLTVLGQPKAAPSVTLFPPSSEELQANKATLVCLISDFYPGAVTVAWKADSSPVKAGVETTTPSKQSNNKYAASSYLSLTPEQWKSHRSYSCQVTHEGSTVEKTVAPTECS
notes: DVD-Ig with CH QL
Kd [7]: < 0.00016 nM
koff [7]: < 1e-06 s⁻¹
kon [7]: 6.1e+06 M⁻¹ s⁻¹
Kd [8]: < 0.0001 nM
koff [8]: < 1e-06 s⁻¹
kon [8]: 9.9e+06 M⁻¹ s⁻¹
Kd (recombinant human TNF-α [9]): 0.007 nM
koff (recombinant human TNF-α [9]): 3e-05 s⁻¹
kon (recombinant human TNF-α [9]): 4.2e+06 M⁻¹ s⁻¹
L929 TNF neutralization IC50 with 50 nM SOST (recombinant human TNF-α [10]): 0.032 nM
L929 TNF neutralization IC50 without 50 nM SOST (recombinant human TNF-α [10]): 0.033 nM

B7: AE10-6 AM7-GS-MAK195-21 (bispecific antibody, human IgG1, kappa, L234A L235A)
heavy: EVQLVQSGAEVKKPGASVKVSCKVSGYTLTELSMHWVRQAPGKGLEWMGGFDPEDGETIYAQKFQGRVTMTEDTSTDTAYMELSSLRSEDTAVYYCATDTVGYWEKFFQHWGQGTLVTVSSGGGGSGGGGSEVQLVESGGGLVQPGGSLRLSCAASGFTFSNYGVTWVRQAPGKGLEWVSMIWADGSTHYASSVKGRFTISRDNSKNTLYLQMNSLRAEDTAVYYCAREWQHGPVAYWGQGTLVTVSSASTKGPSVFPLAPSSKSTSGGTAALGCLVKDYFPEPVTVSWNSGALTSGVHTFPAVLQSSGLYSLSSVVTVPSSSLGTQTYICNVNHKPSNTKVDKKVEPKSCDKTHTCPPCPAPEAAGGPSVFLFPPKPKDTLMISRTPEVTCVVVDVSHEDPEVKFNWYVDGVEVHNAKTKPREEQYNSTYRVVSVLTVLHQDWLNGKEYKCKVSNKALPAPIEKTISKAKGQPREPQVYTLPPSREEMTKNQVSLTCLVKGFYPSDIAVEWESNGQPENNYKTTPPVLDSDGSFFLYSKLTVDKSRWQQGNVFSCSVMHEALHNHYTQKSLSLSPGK
light: QAVVTQEPSLTVSPGGTVTLTCGSSTGTVTIDHYPYWFQQKPGQAPRTLISDTDDKHSWTPARFSGSLLGGKAALTLSGAQPEDEAEYYCLLDYGGRFVFGGGTKLTVLGGGSGGGGSGDIQMTQSPSSLSASVGDRVTITCRASQLVSSAVAWYQQKPGKAPKLLIYWASARHTGVPSRFSGSGSGTDFTLTISSLQPEDFATYYCQQHYKTPFTFGQGTKLEIKRTVAAPSVFIFPPSDEQLKSGTASVVCLLNNFYPREAKVQWKVDNALQSGNSQESVTEQDSKDSTYSLSSTLTLSKADYEKHKVYACEVTHQGLSSPVTKSFNRGEC
notes: DVD-Ig: outer AE10-6 AM7, inner MAK195-21
Kd [7]: < 0.00015 nM
koff [7]: < 1e-06 s⁻¹
kon [7]: 6.8e+06 M⁻¹ s⁻¹
L929 TNF neutralization IC50 (Rhesus/cynoTNFa): > 2 nM

B9: MSL17 (antibody, V domains shown)
VH: EVQLLESGGGLVKPGRSLRLSCVAYGFSLTGYSMNWVRQAPGKGLEWVSSISPNDTYRHYADSVKGRFTISRDNAKNSLYLQMNSLRAEDTAVYYCARDTNYRDSGGYFYDVFDIWGQGTMVTVSS
VL: SYELTQPPSVSVAPGETARVTCEGNNIGNKGVHWYQQKPGQAPVLVVYDDSDRPSGIPERFSGSNSGNTATLTISRVEAGDDADYYCQVWDSSSDVFGSGTKVTVLG
notes: fully human mAb
EC50 [6]: 0.778 nM

Results, then the binder that gave them:

binding result [1]: binds
B1: MSK13 (antibody, V domains shown)
VH: EMQLVQSGAEVKKPGASVKVSCKASGYTFSGYYMNWVRQAPGQGLEWMGWINPYSGAATYAQDFQGRITVTRDTSISTGYMELTRLTSTDTAVYYCARGGTITGASWYFDVWGRGTLVTVSS
VL: DIVMTQTPLSLPVTLGQPASISCRSSQSLVHSDGNTYLNWFQQRPGQSPRRLIYKVSNRDSGVPDRFSGSGSGTDFTLKISRVEAEDVGVYYCMQGTHWPQLTFGGGTKVEIKR
notes: fully human mAb

binding result [2]: no binding
binding result [3]: no binding
Kd [4]: 0.9 nM
koff [4]: 0.00025 s⁻¹
kon [4]: 280000 M⁻¹ s⁻¹
Kd [5]: 0.36 nM
koff [5]: 0.0001 s⁻¹
kon [5]: 300000 M⁻¹ s⁻¹
B2: MSL10-AM3.2 (antibody, V domains shown)
VH: EVQLVESGGGLVQPGRSLRLSCAASGFTFDDYALHWVRQAPGKGLEWVSGIGWDEDMIDYADSVKGRFTISRDNAKNSLYLQMNSLRVEDTALYYCAGNNRGYGGLDVWGQGTTVTVSS
VL: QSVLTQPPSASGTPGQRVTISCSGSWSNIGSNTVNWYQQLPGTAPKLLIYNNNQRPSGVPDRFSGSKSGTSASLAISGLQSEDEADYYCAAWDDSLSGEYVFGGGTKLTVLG

binding result [1]: binds
B4: MSK9 (antibody, V domains shown)
VH: B3 VH with V5L, R28T, T30R, D31S, T35S, P45L, N50S, N52K, E53Q
VL: DIVMTQTPLSLPVTPGEPASISCRSSQSLLHSNGYNYLDWYLQKPGQSPQLLIYLGSKRASGVPDRFSGSGSGTDFTLKISRVGAEDVGVYYCMQGLQTPKAFGPGTKVDIKR
notes: fully human mAb

binding result [1]: binds
B8: MSK21 (antibody, V domains shown)
VH: EVQLQQSGPGLVKPSQTLSLTCAISGDSVSSNIVAWNWIRQSPSRGLEWLGRTYYTSKWFNQYAMSVKSRITINPDTSKNQVSLKLSSVTAADTAAYYCARVGGTYDFWSGYYRPYYYGMDVWGQGTMVTVSS
VL: DIRLTQSPSSLSASIGDTVTISCRSSQPINTHLNWFRQLPGRAPELLIYGSSSLHTGVPSRFSGSGSGTDFTLTITSLQRGDFLTYYCQQTHRLPITFGQGTRLDIKR
notes: fully human mAb
